Tests used:
[1] = biological target: T1, NicX (2,5-dihydroxypyridine dioxygenase) (Pseudomonas putida, UniProt Q88FY1); assay: X-ray crystal structure, […] Å, soaked crystals; type: binding; settings: soaked with 5 mM Fe2+, then 5 mM DHP and 20 mM sodium dithionite
T1 construct: full-length WT in pET-24a, C-terminal 6xHis tag, E. coli BL21(DE3), ~39 kDa, homohexamer, mononuclear Fe(II); domains residues 2-151 and 152-350
T1 sequence (Q88FY1 1-350): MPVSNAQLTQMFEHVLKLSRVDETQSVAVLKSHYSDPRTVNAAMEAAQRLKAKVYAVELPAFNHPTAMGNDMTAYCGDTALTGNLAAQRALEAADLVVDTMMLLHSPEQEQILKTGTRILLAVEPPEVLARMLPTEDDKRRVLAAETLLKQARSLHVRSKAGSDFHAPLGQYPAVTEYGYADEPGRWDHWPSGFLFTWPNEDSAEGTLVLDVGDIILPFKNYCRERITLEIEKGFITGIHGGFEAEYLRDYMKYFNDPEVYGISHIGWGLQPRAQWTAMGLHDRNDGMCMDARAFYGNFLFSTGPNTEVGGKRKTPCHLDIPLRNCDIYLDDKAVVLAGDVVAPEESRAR

[2] = system: T2, Oc1ccc(O)nc1; assay: purified protein; type: biochemical, Pseudomonas putida; settings: 20 mM Tris-HCl pH 8.0, 50 µM FeCl2, 25 °C, O2 (air)
T2 construct: full-length WT in pET-24a, C-terminal 6xHis tag, E. coli BL21(DE3), ~39 kDa, homohexamer, mononuclear Fe(II); domains residues 2-151 and 152-350

[3] = substrate: Oc1ccc(O)nc1; assay: purified protein; type: biochemical, Pseudomonas putida; settings: 20 mM Tris-HCl pH 8.0, 50 µM FeCl2, 25 °C, O2 (air)
[4] = biological target: the molecule itself; assay: crystal structure; hanging-drop vapor diffusion at 20 °C, 20% PEG 3350, pH 7.0; six molecules in the asymmetric unit; also crystals soaked with Fe2+ and DHP

In the case of `Oc1ccc(O)nc1` [DHP, 2,5-dihydroxypyridine], the “X-ray crystal structure, 2.20 Å, soaked crystals” value ([1]; active site of subunits C, D, E, F) is reported as “four subunits (C, D, E, and F) of the six constituent molecules”.

“NicX (2,5-dihydroxypyridine dioxygenase) (Pseudomonas putida KT2440; V175F)” was tested, and the Km [2] was 117.9 ± 3.68 µM.

With `O=CNC(=O)/C=C\C(=O)O` [NFM, N-formylmaleamic acid] the “X-ray crystal structure, 2.20 Å, soaked crystals” value ([1]; active site of subunits A and B, formed in crystal from DHP) was “the other subunits (A and B) contain the product NFM”.

Molecule “NicX (2,5-dihydroxypyridine dioxygenase) (Pseudomonas putida KT2440; E308A)” has a Km [2] of 95.85 ± 3.68 µM.

B1: NicX (2,5-dihydroxypyridine dioxygenase) (Pseudomonas putida KT2440) (protein)
chain: MPVSNAQLTQMFEHVLKLSRVDETQSVAVLKSHYSDPRTVNAAMEAAQRLKAKVYAVELPAFNHPTAMGNDMTAYCGDTALTGNLAAQRALEAADLVVDTMMLLHSPEQEQILKTGTRILLAVEPPEVLARMLPTEDDKRRVLAAETLLKQARSLHVRSKAGSDFHAPLGQYPAVTEYGYADEPGRWDHWPSGFLFTWPNEDSAEGTLVLDVGDIILPFKNYCRERITLEIEKGFITGIHGGFEAEYLRDYMKYFNDPEVYGISHIGWGLQPRAQWTAMGLHDRNDGMCMDARAFYGNFLFSTGPNTEVGGKRKTPCHLDIPLRNCDIYLDDKAVVLAGDVVAPEESRAR
notes: full-length WT in pET-24a, C-terminal 6xHis tag, E. coli BL21(DE3), ~39 kDa, homohexamer, mononuclear Fe(II); domains residues 2-151 and 152-350
B1 gave a Km [3] of 94.9 ± 3.84 µM.

B2: 2,5-Dihydroxypyridine dioxygenase (NicX) from Pseudomonas putida KT2440 (enzyme, UniProt Q88FY1 1-350, looked up)
chain: MPVSNAQLTQMFEHVLKLSRVDETQSVAVLKSHYSDPRTVNAAMEAAQRLKAKVYAVELPAFNHPTAMGNDMTAYCGDTALTGNLAAQRALEAADLVVDTMMLLHSPEQEQILKTGTRILLAVEPPEVLARMLPTEDDKRRVLAAETLLKQARSLHVRSKAGSDFHAPLGQYPAVTEYGYADEPGRWDHWPSGFLFTWPNEDSAEGTLVLDVGDIILPFKNYCRERITLEIEKGFITGIHGGFEAEYLRDYMKYFNDPEVYGISHIGWGLQPRAQWTAMGLHDRNDGMCMDARAFYGNFLFSTGPNTEVGGKRKTPCHLDIPLRNCDIYLDDKAVVLAGDVVAPEESRAR
notes: NicX, 2,5-dihydroxypyridine dioxygenase of Pseudomonas putida KT2440, full-length wild type; residues 2-350 described in the structure; Cloned into pET-24a between NdeI and HindIII with a C-terminal His tag; in PDB 7CN3 the crystals were soaked with Fe2+ and DHP (subunits C-F hold DHP, A and B hold NFM); also called WT NicX; wild type NicX; source: E. coli BL21(DE3), purified (Ni-NTA, Superdex200 …)
B2 was tested, and the “stoichiometry N” value [4] was 6.

B3: SeMet-substituted NicX (enzyme, Pseudomonas putida KT2440, UniProt Q88FY1 1-350, looked up)
chain: MPVSNAQLTQMFEHVLKLSRVDETQSVAVLKSHYSDPRTVNAAMEAAQRLKAKVYAVELPAFNHPTAMGNDMTAYCGDTALTGNLAAQRALEAADLVVDTMMLLHSPEQEQILKTGTRILLAVEPPEVLARMLPTEDDKRRVLAAETLLKQARSLHVRSKAGSDFHAPLGQYPAVTEYGYADEPGRWDHWPSGFLFTWPNEDSAEGTLVLDVGDIILPFKNYCRERITLEIEKGFITGIHGGFEAEYLRDYMKYFNDPEVYGISHIGWGLQPRAQWTAMGLHDRNDGMCMDARAFYGNFLFSTGPNTEVGGKRKTPCHLDIPLRNCDIYLDDKAVVLAGDVVAPEESRAR
modifications: selenomethionine (SeMet) substituted
notes: NicX, 2,5-dihydroxypyridine dioxygenase of Pseudomonas putida KT2440, selenomethionine-substituted form of the full-length construct; Same construct as m1, expressed with selenomethionine for SAD phasing; also called SeMet-NicX; Se-NicX; source: E. coli B834(DE3) in M9 minimal media, purified (Ni-NTA, Superdex200 gel filtration)
B3: binds [4].
